From paper PMC8113471, “Tanc2-mediated mTOR inhibition balances mTORC1/2 signaling in the developing mouse brain and human neurons” (Nature Communications, 2021) come the findings set out here.

The assay addresses mTOR recombinant protein (Origene #TP320457) (UniProt P42345 1-2549). In words: pull-down; GST-Tanc2 proteins (full-length, N, C) immobilised on glutathione agarose beads, incubated with mTOR recombinant protein (0.5 µg) or Deptor protein in RIPA buffer for 2 h at 4 °C; washed three times; Coomassie staining or immunoblot. To be noted: both partners purified.

B1: GST-Tanc2 (full-length) (natural protein)
chain: not shown
notes: Tanc2, human, aa 1-1990, subcloned from p3XFlag-Tanc2 (aa 1-1990) into pGEX-6P-1; Kept on the glutathione beads as bait; also called purified Tanc2 protein; pGST-Tanc2 (aa 1-1990); source: E. coli BL-21 (DE3), purified on glutathione sepharose 4B beads
For the molecule B1, the binding result is reported as “binds”.

B2: GST-Tanc2-C (aa 1359-1990) (domain or fragment)
chain: REIQRLLLRVEEECRQMQQPQQPPPPPQPQQQLPEEAEPEPQHEDIYSVQDIFEEEYLEQDVENVSIGLQTEARPSQGLPVIQSPPSSPPHRDSAYISSSPLGSHQVFDFRSSSSVGSPTRQTYQSTSPALSPTHQNSHYRPSPPHTSPAHQGGSYRFSPPPVGGQGKEYPSPPPSPLRRGPQYRASPPAESMSVYRSQSGSPVRYQQETSVSQLPGRPKSPLSKMAQRPYQMPQLPVAVPQQGLRLQPAKAQIVRSNQPSPAVHSSTVIPTGAYGQVAHSMASKYQSSQGDIGVSQSRLVYQGSIGGIVGDGRPVQHVQASLSAGAICQHGGLTKEDLPQRPSSAYRGGVRYSQTPQIGRSQSASYYPVCHSKLDLERSSSQLGSPDVSHLIRRPISVNPNEIKPHPPTPRPLLHSQSVGLRFSPSSNSISSTSNLTPTFRPSSSIQQMEIPLKPAYERSCDELSPVSPTQGGYPSEPTRSRTTPFMGIIDKTARTQQYPHLHQQNRTWAVSSVDTVLSPTSPGNLPQPESFSPPSSISNIAFYNKTNNAQNGHLLEDDYYSPHGMLANGSRGDLLERVSQASSYPDVKVARTLPVAQAYQDNLYRQLSRDSRQGQTSPIKPKRPFVESNV
notes: Tanc2, human, aa 1359-1990, in pGEX-6P-1; also called C-terminal region of purified Tanc2; pGST-Tanc2-C; source: E. coli BL-21 (DE3), purified on glutathione sepharose 4B beads
B2: the binding result is “binds”.

B3: GST-Tanc2-N (aa 1-1358) (domain or fragment)
chain: not shown
notes: Tanc2, human, aa 1-1358, in pGEX-6P-1; also called N-terminal region of purified Tanc2; pGST-Tanc2-N; source: E. coli BL-21 (DE3), purified on glutathione sepharose 4B beads
For B3, the binding result was “binds”.
